The values below come from patent US20090081197A1, “Methods for Selection of Melanocortin Receptor-Specific Agents for Treatment of Obesity” (Palatin Technologies, Inc., priority 2007, published 2009).

The term Ki denotes a dissociation constant, usually derived from enzyme kinetics or from competition with a known ligand. Usually Inhibition stands for the relative decrease from the control value, in per cent.

The target in experiment [1] is human melanocortin 4 receptor (human) (UniProt P32245). In words: cell-based or functional assay.
The target of experiment [2] is MC1-R of B-16 mouse melanoma cells (mouse) (UniProt Q01727). In words: radioligand competition, [I125]-NDP-α-MSH, B-16 membranes. (In a radioligand displacement assay an active substance lowers the binding of a labelled ligand.)
Experiment [3] deals with human melanocortin 3 receptor (human) (UniProt P41968). As to the kind of experiment: radioligand competition, [I125]-NDP-α-MSH, hMC3-R membranes.
In experiment [4] the target is human melanocortin 4 receptor (human) (UniProt P32245). As to the kind of experiment: radioligand competition, [I125]-NDP-α-MSH, hMC4-R membranes.
The target of experiment [5] is human melanocortin 5 receptor (human) (UniProt P33032). In words: radioligand competition, [I125]-NDP-α-MSH, hMC5-R membranes.
For the next experiment, the target named is human MC1-R (human) (UniProt Q01726). As to the kind of experiment: radioligand competition, NDP-α-MSH, human MC1-R, normal system.
The target of experiment [6] is MC1-R of B-16 mouse melanoma cells (mouse) (UniProt Q01727). As to the kind of experiment: radioligand competition, [I125]-NDP-α-MSH, B-16 membranes, 1 µM compound.
Experiment [7] has as its target human melanocortin 3 receptor (human) (UniProt P41968). As to the kind of experiment: radioligand competition, [I125]-NDP-α-MSH, hMC3-R membranes, 1 µM compound.
Experiment [8] concerns the target human melanocortin 4 receptor (human) (UniProt P32245). As to the kind of experiment: radioligand competition, [I125]-NDP-α-MSH, hMC4-R membranes, 1 µM compound.
Experiment [9] has as its target human melanocortin 5 receptor (human) (UniProt P33032). As to the kind of experiment: radioligand competition, [I125]-NDP-α-MSH, hMC5-R membranes, 1 µM compound.

Chain of human melanocortin 4 receptor (human) (P32245 whole entry): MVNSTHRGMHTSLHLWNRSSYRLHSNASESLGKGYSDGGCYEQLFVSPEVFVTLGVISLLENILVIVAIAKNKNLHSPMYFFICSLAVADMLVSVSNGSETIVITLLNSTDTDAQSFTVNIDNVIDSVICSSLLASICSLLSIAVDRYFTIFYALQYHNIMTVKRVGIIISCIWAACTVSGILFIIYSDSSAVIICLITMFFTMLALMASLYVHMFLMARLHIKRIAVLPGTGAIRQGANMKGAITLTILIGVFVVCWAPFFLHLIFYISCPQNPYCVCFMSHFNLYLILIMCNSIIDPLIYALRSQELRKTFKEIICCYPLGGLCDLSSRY
Chain of human melanocortin 5 receptor (human) (P33032 whole entry): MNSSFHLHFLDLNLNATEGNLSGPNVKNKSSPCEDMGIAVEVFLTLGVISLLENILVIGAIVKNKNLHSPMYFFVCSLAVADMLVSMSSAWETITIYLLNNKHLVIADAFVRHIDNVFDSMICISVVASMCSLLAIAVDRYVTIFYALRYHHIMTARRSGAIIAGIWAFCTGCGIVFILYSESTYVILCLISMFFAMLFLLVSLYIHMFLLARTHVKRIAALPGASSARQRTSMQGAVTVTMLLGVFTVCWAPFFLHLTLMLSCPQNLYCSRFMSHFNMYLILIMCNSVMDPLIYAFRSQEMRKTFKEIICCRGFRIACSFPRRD
Chain of human melanocortin 3 receptor (human) (P41968 whole entry): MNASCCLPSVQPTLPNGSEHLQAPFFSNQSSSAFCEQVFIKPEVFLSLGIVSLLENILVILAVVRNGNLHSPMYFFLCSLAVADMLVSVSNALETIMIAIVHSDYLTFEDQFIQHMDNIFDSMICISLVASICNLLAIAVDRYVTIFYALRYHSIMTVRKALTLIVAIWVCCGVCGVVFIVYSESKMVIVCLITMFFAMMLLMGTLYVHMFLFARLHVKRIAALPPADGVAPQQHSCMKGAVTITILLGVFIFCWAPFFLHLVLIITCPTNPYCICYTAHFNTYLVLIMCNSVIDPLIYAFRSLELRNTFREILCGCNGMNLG
Chain of MC1-R of B-16 mouse melanoma cells (mouse) (Q01727 whole entry): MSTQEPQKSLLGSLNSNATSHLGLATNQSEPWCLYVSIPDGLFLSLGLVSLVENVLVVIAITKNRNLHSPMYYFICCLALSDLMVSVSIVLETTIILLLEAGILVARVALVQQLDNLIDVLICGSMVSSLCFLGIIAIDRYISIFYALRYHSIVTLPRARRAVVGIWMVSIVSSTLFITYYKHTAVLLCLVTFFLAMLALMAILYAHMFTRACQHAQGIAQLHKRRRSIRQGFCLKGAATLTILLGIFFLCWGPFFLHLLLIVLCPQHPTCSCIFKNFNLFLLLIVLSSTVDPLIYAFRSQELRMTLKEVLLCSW
Chain of human MC1-R (human) (Q01726 whole entry): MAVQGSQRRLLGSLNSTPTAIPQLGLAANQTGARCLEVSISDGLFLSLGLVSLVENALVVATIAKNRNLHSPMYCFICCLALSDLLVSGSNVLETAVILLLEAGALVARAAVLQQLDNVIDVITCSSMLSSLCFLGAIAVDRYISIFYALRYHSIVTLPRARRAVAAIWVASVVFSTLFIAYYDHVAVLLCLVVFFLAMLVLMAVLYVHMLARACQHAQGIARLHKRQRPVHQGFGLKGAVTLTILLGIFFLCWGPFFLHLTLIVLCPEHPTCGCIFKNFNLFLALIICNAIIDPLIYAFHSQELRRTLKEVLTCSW

B1: Ac-Nle-cyclo(Asp-His-D-Nal 2-Arg-Nal 2-Lys)-OH (peptide)
peptide: XDHXRXK
modifications: N-terminal acetyl; Nle at 1 (X); D-Nal 2 at 4 (X); Nal 2 at 6 (X); cyclo(Asp 2 to Lys 7); free C-terminal acid
Consider B1, for which the pA2 (antagonism of NDP-α-MSH-stimulated cAMP, Schild analysis), normal system in experiment [1] is 8.1. The Ki in [2] is 200 pM; in experiment [3], 300 pM; in [4], 20 pM; in [5] it was 200 pM; with human MC1-R (human), 250 pM. Besides, the Inhibition at 1 µM (NDP-α-MSH) in experiment [6] came to 102%; in experiment [7], 98%; in experiment [8] it was 100%; in experiment [9] it was 100%.
